The target in experiment [1] is 6xHis-tagged RcsF (E. coli) (UniProt P69411). The experiment can be described thus: BLI. On the technique in general: In BLI a coated tip is dipped into the sample, and binding shifts an interference pattern.
Experiment [2] concerns the target Untagged BamA (E. coli), P0A940. The experiment can be described thus: BLI. To be noted: remark: other sources report otherwise.
The target in the next experiment is BamAB sub-complex (E. coli, UniProt P0A940;P77774, lipid moiety). The experiment can be described thus: native gel or EMSA. In general terms: A gel shift assay detects complexes by their altered migration in electrophoresis.
BamAB sub-complex, sequence (P77774 20-392, one chain of several): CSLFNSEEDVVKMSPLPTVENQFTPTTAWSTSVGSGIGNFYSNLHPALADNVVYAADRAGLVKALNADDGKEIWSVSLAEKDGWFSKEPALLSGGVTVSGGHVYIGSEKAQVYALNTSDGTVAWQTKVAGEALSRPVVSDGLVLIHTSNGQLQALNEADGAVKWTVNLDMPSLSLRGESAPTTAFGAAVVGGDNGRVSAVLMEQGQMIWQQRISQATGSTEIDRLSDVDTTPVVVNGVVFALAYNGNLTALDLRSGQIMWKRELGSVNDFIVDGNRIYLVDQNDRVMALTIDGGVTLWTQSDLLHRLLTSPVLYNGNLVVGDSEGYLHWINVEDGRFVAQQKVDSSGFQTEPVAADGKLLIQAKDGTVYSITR
In the next experiment the target is BamABCDE holocomplex (E. coli, UniProt P0A940;P77774;P0A903;P0AC02;P0A937, lipid moiety | lipid moiety | lipid moiety | lipid moiety). Briefly: native gel or EMSA.
BamABCDE holocomplex, sequence (P77774 20-392, chain 2 of 4): as the sequence (P77774 20-392, one chain of several) above
BamABCDE holocomplex, sequence (P0A903 25-344, chain 3 of 4): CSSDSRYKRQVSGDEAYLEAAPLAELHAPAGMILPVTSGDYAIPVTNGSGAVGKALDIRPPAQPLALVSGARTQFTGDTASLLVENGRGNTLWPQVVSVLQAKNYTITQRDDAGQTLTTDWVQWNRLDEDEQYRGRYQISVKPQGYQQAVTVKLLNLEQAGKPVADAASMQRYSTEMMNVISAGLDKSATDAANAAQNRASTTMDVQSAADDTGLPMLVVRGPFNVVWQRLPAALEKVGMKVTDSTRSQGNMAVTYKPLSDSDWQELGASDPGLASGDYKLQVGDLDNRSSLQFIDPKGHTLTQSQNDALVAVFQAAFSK
BamABCDE holocomplex, sequence (P0AC02 20-245, chain 4 of 4): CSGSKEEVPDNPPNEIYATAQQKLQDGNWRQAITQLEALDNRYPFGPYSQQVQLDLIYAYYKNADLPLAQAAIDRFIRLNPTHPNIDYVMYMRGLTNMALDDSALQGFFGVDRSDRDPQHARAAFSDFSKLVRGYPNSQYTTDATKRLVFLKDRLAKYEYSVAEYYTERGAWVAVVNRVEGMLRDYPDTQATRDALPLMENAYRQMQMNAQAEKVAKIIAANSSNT
BamABCDE holocomplex, sequence (P0A937 20-113, chain 5 of 4): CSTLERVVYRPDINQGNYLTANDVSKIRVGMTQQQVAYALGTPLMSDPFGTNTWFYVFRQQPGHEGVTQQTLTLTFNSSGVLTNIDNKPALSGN

Broadly, the Kd is the free concentration of one partner at which half of the binding sites on the other are occupied at equilibrium, for simple one-to-one binding. Lower therefore signals higher affinity. Consider “Untagged BamA (from UniProt P0A940 21-810) (natural protein; other documents disagree on this pair)”, for which the equilibrium dissociation constant (Kd) in experiment [1] came out at 420 nM.

B1: 6xHis-tagged RcsF, P69411 16-134 (natural protein)
chain: CSMLSRSPVEPVQSTAPQPKAEPAKPKAPRATPVRIYTNAEELVGKPFRDLGEVSGDSCQASNQDSPPSIPTARKRMQINASKMKANAVLLHSCEVTSGTPGCYRQAVCIGSALNITAK
modifications: here or on the partner: biotin (EZ-Link NHS-PEG4-biotin) where immobilised on streptavidin tips
In experiment [2], B1 registered a dissociation constant Kd of 350 nM.

B2: RcsF (natural protein)
chain: B1 chain
modifications: lipid anchor
On to B2, for which the binding result with BamAB sub-complex and in the experiment with BamABCDE holocomplex was “binds” throughout.
